Assay results reported in article PMC3513585.

Target: denatured human type I collagen (gelatin) (human) (UniProt P02452)
Assay: ELISA

Sequence of denatured human type I collagen (gelatin) (human) (P02452 162-1218, chain 1 of 2): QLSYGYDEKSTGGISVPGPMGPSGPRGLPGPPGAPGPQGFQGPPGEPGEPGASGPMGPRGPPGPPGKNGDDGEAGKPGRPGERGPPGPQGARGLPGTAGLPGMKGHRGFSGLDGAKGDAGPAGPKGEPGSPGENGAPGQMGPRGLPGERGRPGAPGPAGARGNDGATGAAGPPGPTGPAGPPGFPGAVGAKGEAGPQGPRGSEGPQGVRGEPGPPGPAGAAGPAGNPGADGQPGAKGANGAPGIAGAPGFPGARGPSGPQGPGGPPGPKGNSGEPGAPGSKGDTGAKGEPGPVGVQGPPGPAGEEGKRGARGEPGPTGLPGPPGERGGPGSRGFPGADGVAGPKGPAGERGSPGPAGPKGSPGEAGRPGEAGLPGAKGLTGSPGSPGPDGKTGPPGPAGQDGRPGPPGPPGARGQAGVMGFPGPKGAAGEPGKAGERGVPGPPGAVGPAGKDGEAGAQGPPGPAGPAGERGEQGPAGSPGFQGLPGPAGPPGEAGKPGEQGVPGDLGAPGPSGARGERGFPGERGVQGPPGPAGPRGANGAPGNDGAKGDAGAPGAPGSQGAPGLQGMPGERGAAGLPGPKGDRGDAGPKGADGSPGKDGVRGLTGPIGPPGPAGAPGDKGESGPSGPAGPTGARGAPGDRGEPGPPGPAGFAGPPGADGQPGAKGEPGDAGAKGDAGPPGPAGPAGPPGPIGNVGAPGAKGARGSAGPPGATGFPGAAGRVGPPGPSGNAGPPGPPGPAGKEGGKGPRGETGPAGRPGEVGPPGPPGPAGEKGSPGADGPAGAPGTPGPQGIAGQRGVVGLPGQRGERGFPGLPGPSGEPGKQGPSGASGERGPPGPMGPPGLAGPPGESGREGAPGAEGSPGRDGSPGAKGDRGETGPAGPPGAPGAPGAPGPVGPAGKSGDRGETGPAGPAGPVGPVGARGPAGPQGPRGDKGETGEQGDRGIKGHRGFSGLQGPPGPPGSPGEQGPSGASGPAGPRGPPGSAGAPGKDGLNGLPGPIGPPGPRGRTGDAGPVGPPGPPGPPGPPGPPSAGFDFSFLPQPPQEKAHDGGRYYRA
Sequence of denatured human type I collagen (gelatin) (human) (P08123 80-1119, chain 2 of 2, further chain): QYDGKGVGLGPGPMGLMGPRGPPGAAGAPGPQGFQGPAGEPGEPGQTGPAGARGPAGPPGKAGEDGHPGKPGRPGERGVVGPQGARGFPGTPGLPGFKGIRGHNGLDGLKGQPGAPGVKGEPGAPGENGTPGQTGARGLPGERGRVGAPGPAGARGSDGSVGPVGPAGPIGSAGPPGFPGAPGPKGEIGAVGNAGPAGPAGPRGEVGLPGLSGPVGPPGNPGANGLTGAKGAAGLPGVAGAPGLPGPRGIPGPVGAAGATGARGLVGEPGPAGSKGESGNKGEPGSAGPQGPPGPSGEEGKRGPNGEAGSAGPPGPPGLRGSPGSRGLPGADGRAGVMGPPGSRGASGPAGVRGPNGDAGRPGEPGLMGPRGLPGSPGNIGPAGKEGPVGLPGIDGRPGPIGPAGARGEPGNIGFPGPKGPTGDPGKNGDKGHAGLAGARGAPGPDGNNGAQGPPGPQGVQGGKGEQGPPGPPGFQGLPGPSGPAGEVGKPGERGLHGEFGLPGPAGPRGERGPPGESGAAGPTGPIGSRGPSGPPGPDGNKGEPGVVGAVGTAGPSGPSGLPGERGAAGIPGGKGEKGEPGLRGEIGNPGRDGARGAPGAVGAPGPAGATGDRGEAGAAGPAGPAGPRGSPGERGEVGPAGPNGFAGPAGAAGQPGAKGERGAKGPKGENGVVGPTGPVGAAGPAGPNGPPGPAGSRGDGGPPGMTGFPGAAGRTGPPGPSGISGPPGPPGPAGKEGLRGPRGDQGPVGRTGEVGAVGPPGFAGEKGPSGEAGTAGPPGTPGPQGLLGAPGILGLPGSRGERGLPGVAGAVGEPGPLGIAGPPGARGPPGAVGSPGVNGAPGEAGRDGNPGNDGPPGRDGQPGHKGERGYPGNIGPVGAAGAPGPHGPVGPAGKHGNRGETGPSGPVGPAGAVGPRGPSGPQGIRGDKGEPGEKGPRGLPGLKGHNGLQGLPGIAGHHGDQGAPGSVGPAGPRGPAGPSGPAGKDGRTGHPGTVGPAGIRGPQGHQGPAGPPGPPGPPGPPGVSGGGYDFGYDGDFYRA

Kd	Substance
2.8 nM	MMP-2 F297A (variant of MMP-2Δpro, CBD module 2) (from UniProt P08253 30-660) (enzyme)
37.6 nM	MMP-2 F297A/R368A (variant of MMP-2Δpro, CBD modules 2+3) (from UniProt P08253 30-660) (enzyme)
2.58 nM	MMP-2 R252A (variant of MMP-2Δpro, CBD module 1) (from UniProt P08253 30-660) (enzyme)
5.84 nM	MMP-2 R252A/F297A (variant of MMP-2Δpro, CBD modules 1+2) (from UniProt P08253 30-660) (enzyme)
7.49 nM	MMP-2 R252A/R368A (variant of MMP-2Δpro, CBD modules 1+3) (from UniProt P08253 30-660) (enzyme)
3.56 nM	MMP-2 R368A (variant of MMP-2Δpro, CBD module 3) (from UniProt P08253 30-660) (enzyme)
1.03 nM	MMP-2Δpro (constitutively active matrix metalloproteinase-2 without the prodomain; wild-type) (from UniProt P08253 30-660) (enzyme)
